Results reported in patent publication US8053186 (OHIO STATE UNIVERSITY RESEARCH FOUNDATION, dated 2011).

B2: Drosha (endogenous, immunoprecipitated from SEMK2 or PER377 nuclear extracts) (enzyme, human, UniProt Q9NRR4 1-1374, looked up)
chain: MMQGNTCHRMSFHPGRGCPRGRGGHGARPSAPSFRPQNLRLLHPQQPPVQYQYEPPSAPSTTFSNSPAPNFLPPRPDFVPFPPPMPPSAQGPLPPCPIRPPFPNHQMRHPFPVPPCFPPMPPPMPCPNNPPVPGAPPGQGTFPFMMPPPSMPHPPPPPVMPQQVNYQYPPGYSHHNFPPPSFNSFQNNPSSFLPSANNSSSPHFRHLPPYPLPKAPSERRSPERLKHYDDHRHRDHSHGRGERHRSLDRRERGRSPDRRRQDSRYRSDYDRGRTPSRHRSYERSRERERERHRHRDNRRSPSLERSYKKEYKRSGRSYGLSVVPEPAGCTPELPGEIIKNTDSWAPPLEIVNHRSPSREKKRARWEEEKDRWSDNQSSGKDKNYTSIKEKEPEETMPDKNEEEEEELLKPVWIRCTHSENYYSSDPMDQVGDSTVVGTSRLRDLYDKFEEELGSRQEKAKAARPPWEPPKTKLDEDLESSSESECESDEDSTCSSSSDSEVFDVIAEIKRKKAHPDRLHDELWYNDPGQMNDGPLCKCSAKARRTGIRHSIYPGEEAIKPCRPMTNNAGRLFHYRITVSPPTNFLTDRPTVIEYDDHEYIFEGFSMFAHAPLTNIPLCKVIRFNIDYTIHFIEEMMPENFCVKGLELFSLFLFRDILELYDWNLKGPLFEDSPPCCPRFHFMPRFVRFLPDGGKEVLSMHQILLYLLRCSKALVPEEEIANMLQWEELEWQKYAEECKGMIVTNPGTKPSSVRIDQLDREQFNPDVITFPIIVHFGIRPAQLSYAGDPQYQKLWKSYVKLRHLLANSPKVKQTDKQKLAQREEALQKIRQKNTMRREVTVELSSQGFWKTGIRSDVCQHAMMLPVLTHHIRYHQCLMHLDKLIGYTFQDRCLLQLAMTHPSHHLNFGMNPDHARNSLSNCGIRQPKYGDRKVHHMHMRKKGINTLINIMSRLGQDDPTPSRINHNERLEFLGDAVVEFLTSVHLYYLFPSLEEGGLATYRTAIVQNQHLAMLAKKLELDRFMLYAHGPDLCRESDLRHAMANCFEALIGAVYLEGSLEEAKQLFGRLLFNDPDLREVWLNYPLHPLQLQEPNTDRQLIETSPVLQKLTEFEEAIGVIFTHVRLLARAFTLRTVGFNHLTLGHNQRMEFLGDSIMQLVATEYLFIHFPDHHEGHLTLLRSSLVNNRTQAKVAEELGMQEYAITNDKTKRPVALRTKTLADLLESFIAALYIDKDLEYVHTFMNVCFFPRLKEFILNQDWNDPKSQLQQCCLTLRTEGKEPDIPLYKTLQTVGPSHARTYTVAVYFKGERIGCGKGPSIQQAEMGAAMDALEKYNFPQMAHQKRFIERKYRQELKEMRWEREHQEREPDETEDIKK
notes: Endogenous protein in nuclear extracts, not a purified recombinant construct; also called nuclear RNase III enzyme; SEMK2 Drosha

Assays:
[1] = molecular target: B2; test: co-IP with anti-Drosha Ab, Western blot
Protocol: (§1) FIG. 2A) Western blot detection of immunoprecipitated proteins. […] For unambiguous identification of Drosha, recombinant Drosha exogenously expressed in K562 cells transfected with pCK-Drosha-Flag plasmid was purified by IP (Drosha:FLAG). 20 μg nuclear extracts of leukemic cells or around 2.5 μg of immuno-purified Drosha were used in the analysis. Note that endogenous Drosha was purified from nuclear extracts while Drosha:FLAG was from whole cell lyzate.
(§2) K562 cells were transfected with pCK-drosha-flag by using a Nucleofector apparatus according to the manufacturer's instructions (AMAXA). 2 ×10^8 transfected cells were lysed and subjected to IP with anti-Flag M2 mAb as described in ref. 11. Briefly, 25 mg whole cell lysate were incubated with 500 μg mAb after preclearing with protein G Sepharose (GE Healthcare) at 4° C., O/N. Immunocomplex was precipitated with protein G Sepharose, washed, and the Drosha:FLAG in the precipitate was eluted by adding 3×FLAG peptide at a concentration of 0.4 mg/ml in a buffer containing 30 mM Hepes, pH7.4/100 mM KCl/5% Glycerol/0.2 mM EDTA/7.5 mM MgCl_2/2 mM DTT. Elution was repeated three times, each for 30 min at RT, and eluates were combined. For immunoprecipitation of endogenous Drosha, 50 mg of nuclear extracts from SEMK2 or PER377 cells prepared by the method of Dignam et al. (19) were subjected to IP with 300 μg of anti-Drosha Ab. […]

[2] = molecular target: T1, normal p300 All1 (endogenous) (human, UniProt Q03164 1-2718, limits assumed); test: co-immunoprecipitation with anti-Drosha Ab from nuclear extracts, Western blot
T1 construct: also called normal All1
Protocol: as §1, §2

T1 sequence (Q03164 1-2718 limits assumed): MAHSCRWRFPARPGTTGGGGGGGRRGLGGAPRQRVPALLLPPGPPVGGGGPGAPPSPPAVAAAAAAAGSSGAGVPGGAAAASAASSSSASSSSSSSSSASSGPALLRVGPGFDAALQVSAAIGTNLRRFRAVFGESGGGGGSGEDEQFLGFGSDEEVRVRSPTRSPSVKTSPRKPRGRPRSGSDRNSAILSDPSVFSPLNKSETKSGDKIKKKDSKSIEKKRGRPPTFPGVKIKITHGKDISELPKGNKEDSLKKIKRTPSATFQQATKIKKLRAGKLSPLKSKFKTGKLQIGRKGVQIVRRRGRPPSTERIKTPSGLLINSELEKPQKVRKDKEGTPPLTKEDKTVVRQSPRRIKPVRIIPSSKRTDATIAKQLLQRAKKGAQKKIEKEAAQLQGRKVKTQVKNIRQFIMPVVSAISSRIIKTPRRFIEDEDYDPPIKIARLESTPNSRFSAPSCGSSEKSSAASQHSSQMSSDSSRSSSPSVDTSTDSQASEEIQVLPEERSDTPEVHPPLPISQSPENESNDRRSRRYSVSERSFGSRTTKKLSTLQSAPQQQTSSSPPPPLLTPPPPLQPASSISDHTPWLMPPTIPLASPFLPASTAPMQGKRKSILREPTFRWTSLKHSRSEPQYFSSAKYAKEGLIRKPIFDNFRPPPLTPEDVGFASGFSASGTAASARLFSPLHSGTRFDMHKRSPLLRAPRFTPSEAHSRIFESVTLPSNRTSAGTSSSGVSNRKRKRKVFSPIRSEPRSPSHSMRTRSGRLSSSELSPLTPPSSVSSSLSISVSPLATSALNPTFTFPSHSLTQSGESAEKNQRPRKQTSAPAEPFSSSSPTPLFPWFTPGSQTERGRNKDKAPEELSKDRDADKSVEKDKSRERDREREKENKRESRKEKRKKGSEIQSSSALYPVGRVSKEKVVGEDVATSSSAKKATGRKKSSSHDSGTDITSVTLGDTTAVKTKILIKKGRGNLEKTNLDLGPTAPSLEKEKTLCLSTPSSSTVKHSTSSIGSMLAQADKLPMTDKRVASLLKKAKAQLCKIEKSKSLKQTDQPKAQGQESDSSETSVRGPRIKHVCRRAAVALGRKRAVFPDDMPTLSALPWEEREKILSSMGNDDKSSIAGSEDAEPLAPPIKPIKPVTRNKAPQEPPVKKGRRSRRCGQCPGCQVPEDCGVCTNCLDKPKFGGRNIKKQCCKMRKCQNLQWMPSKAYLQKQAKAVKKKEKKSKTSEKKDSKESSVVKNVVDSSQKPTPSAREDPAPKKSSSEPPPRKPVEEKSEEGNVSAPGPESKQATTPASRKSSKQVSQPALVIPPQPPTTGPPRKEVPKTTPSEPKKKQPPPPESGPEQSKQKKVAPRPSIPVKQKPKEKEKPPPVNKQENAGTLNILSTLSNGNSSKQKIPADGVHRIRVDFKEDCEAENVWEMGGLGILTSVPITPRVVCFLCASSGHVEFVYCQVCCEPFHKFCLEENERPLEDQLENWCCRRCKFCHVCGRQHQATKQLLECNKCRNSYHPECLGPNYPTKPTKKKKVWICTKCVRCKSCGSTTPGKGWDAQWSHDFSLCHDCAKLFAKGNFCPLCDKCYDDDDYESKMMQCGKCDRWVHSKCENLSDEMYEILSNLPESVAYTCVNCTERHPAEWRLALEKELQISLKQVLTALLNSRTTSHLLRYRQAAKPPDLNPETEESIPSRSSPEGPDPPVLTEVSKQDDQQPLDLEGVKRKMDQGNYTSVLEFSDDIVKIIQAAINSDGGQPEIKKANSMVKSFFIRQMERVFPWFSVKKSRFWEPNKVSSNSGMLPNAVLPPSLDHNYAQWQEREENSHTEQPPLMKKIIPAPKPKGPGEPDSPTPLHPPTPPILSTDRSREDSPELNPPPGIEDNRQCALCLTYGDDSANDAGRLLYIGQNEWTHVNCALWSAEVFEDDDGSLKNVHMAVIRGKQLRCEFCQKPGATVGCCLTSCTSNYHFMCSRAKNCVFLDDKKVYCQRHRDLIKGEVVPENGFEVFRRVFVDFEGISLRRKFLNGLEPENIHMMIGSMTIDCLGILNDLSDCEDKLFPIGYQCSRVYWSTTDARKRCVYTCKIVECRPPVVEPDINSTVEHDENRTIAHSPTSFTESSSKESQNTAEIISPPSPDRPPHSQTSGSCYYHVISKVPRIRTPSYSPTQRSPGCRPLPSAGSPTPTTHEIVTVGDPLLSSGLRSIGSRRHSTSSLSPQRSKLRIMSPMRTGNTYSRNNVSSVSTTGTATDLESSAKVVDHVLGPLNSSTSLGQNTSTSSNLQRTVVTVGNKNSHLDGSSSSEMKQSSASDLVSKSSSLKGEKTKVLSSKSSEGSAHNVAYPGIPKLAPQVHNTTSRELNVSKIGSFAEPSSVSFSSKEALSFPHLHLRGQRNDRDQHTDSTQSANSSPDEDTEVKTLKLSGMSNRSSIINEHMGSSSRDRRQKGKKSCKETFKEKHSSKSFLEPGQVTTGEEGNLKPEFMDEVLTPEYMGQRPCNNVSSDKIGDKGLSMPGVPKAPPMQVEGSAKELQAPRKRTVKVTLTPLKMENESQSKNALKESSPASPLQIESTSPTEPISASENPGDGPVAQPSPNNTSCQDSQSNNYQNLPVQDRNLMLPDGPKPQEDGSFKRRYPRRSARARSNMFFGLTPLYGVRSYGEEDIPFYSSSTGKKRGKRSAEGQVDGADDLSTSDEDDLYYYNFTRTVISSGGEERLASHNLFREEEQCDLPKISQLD

B1: DGCR8 (endogenous) (other, human, UniProt Q8WYQ5 1-773, looked up)
chain: METDESPSPLPCGPAGEAVMESRARPFQALPREQSPPPPLQTSSGAEVMDVGSGGDGQSELPAEDPFNFYGASLLSKGSFSKGRLLIDPNCSGHSPRTARHAPAVRKFSPDLKLLKDVKISVSFTESCRSKDRKVLYTGAERDVRAECGLLLSPVSGDVHACPFGGSVGDGVGIGGESADKKDEENELDQEKRVEYAVLDELEDFTDNLELDEEGAGGFTAKAIVQRDRVDEEALNFPYEDDFDNDVDALLEEGLCAPKKRRTEEKYGGDSDHPSDGETSVQPMMTKIKTVLKSRGRPPTEPLPDGWIMTFHNSGVPVYLHRESRVVTWSRPYFLGTGSIRKHDPPLSSIPCLHYKKMKDNEEREQSSDLTPSGDVSPVKPLSRSAELEFPLDEPDSMGADPGPPDEKDPLGAEAAPGALGQVKAKVEVCKDESVDLEEFRSYLEKRFDFEQVTVKKFRTWAERRQFNREMKRKQAESERPILPANQKLITLSVQDAPTKKEFVINPNGKSEVCILHEYMQRVLKVRPVYNFFECENPSEPFGASVTIDGVTYGSGTASSKKLAKNKAARATLEILIPDFVKQTSEEKPKDSEELEYFNHISIEDSRVYELTSKAGLLSPYQILHECLKRNHGMGDTSIKFEVVPGKNQKSEYVMACGKHTVRGWCKNKRVGKQLASQKILQLLHPHVKNWGSLLRMYGRESSKMVKQETSDKSVIELQQYAKKNKPNLHILSKLQEEMKRLAEEREETRKKPKMSIVASAQPGGEPLCTVDV
binding result [1]: binds

B2
binding result [2]: no binding
